Data as given in patent US20200190159A1.

Legend:
[1] = molecular target: recombinant tetranectin (TN) (human) (UniProt P05452); experiment: BIAcore SPR; recombinant TN immobilized on the sensor chip, HMGB1 as analyte at 31, 62, 125, 250, 500 and 1000 nM
[2] = molecular target: recombinant tetranectin (TN) (human) (UniProt P05452); experiment: SPR (BIAcore), TN immobilized on CM5 chip, HMGB1 as analyte at various concentrations; apparent Kd

recombinant tetranectin (TN) (human), sequence (P05452 22-202): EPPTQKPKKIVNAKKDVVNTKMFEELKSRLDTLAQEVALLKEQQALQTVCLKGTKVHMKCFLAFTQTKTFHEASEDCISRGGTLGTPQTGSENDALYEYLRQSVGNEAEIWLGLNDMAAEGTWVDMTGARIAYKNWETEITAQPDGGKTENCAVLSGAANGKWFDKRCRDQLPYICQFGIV

**Q.** Which results are given for “high mobility group box-1 (HMGB1) protein”?
**A.** Kd [1]: 520 nM; Kd [2]: 570 nM
